Reference: patent US20220356229A1 (published 2022)
Residue numbers refer to the chain shown, from its start.

B1: anti-SARS-CoV-2 antibody 407 (antibody, V domains shown)
VH: QVQLVESGGGVVQPGRSLRLSCAASGFTFSSYGMHWVRQAPGKGLEWVAVISYDGSNKYYADSVKGRFTISRDNSKNTLYLQMNSLRAEDTAVYYCAKCGWDYDFWVGQGYGMDVWGQGTTVTVSS
VL: not shown
B2: anti-SARS-CoV-2 antibody 392 (antibody, V domains shown)
VH: QVQLQESGPGLVKPSGTLSLTCAVSGGSISSSNWWSWVRQPPGKGLEWIGEIYHSGSTNYNPSLKSRVTISVDKSKNQFSLKLSSVTAADTAVYYCARGWRATLYGMDVWGQGTTVTVSS
VL: QSALTQPASVSGSPGQSITISCTGTSSDVGSYNLVSWYQQHPGKAPKLMIYEVSKRPSGVSNRFSGSKSGNTASLTISGLQAEDEADYYCCSYAGSSTWVFGGGTKLTVL
B3: anti-SARS-CoV-2 antibody 405 (antibody, V domains shown)
VH: not shown
VL: B2 VL with A8R, I18V, S31G, L34Y, E52D, S61P, N62D, S97Y, T98N, W99V
B4: antibody 273 (antibody, V domains shown)
VH: QVQLVQSGAEVKKPGASVKVSCKVSGYTLTELSMHWVRQAPGKGLEWMGGFDPEDGETIYAQKFQGRVTMTEDTSTDTAYMELSSLRSEDTAVYYCATAPGYYDSSAPQPINWFDPWGQGTLVTVSS
VL: B2 VL with W99L
B5: anti-SARS-CoV-2 antibody 404 (antibody, V domains shown)
VH: QVQLVESGGGVVQPGRSLRLSCAASGFTFSSYGMHWVRQAPGKGLEWVAVIWYDGSNKYYADSVKGRFTISRDNSKNTLYLQMNSLRAEDTAVYYCARLAVDISFDGSDGMDVWGQGTTVTVSS
VL: SYELTQPPSVSVSPGQTARITCSGDALPKKYAYWYQQKSGQAPVLVIYEDSKRPSGIPERFSGSSSGTMATLTISGAQVEDEADYYCYSTDSSGKGVFGTGTKVTVL
B6: anti-SARS-CoV-2 antibody 421 (antibody, V domains shown)
VH: QVQLVESGGGVVQPGRSLRLSCAASGFTFSTYAMHWVRQAPGKGLEWVAVISYDGSNKYYADSVKGRFTISRDNSKNTLYLQMNSLRAEDTAVYYCARGYGSGSYYPLYLYWGQGTLVTVSS
VL: not shown
B7: anti-SARS-CoV-2 antibody 422 (antibody, V domains shown)
VH: QVQLVQSGSELKKPGASVKVSCKASGYTFTSYAMNWVRQAPGQGLEWMGWINTNTGNPTYAQGFTGRFVFSLDTSVSTTYLQISSLKAEDTAVYYCARVIGVVTYYYYGMDVWGQGTTVTVSS
VL: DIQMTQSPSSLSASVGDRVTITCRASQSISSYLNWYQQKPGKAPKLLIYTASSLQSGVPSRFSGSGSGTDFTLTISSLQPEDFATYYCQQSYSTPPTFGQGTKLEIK
B8: anti-SARS-CoV-2 antibody 385 (antibody, V domains shown)
VH: QVQLVESGGGVVQPGRSLRLSCAASGFTFSSYAIHWVRQAPGKGLEWVAVISYDGSNKYYADSVKGRFTISRDNSKNTLYLQMNSLRAEDTAVYYCARPRSGSYWGAFDIWGQGTMVTVSS
VL: QSVLTQPPSVSGAPGQRVTISCTGSSSNIGARYDVHWYQQLPGTAPKLLIYGNSNRPSGVPDRFSGSKSGTSASLAITGLQAEDEADYYCQSYDSSLRGVFGGGTKLTVL
B9: antibody 295 (antibody, V domains shown)
VH: QVQLQESGPGLVKPSQTLSLTCTVSGGSISSSDYYWSWIRQPPGKGLEWIGYIYYSGSTYYNPSLKSRVTISVDTSKNQFSLKLSSVTAADTAVYYCARVVGYCSSTSCYVDYWGQGTLVTVSS
VL: EIVLTQSPATLSLSPGERVTLSCRASQSVSSYLAWYQQKPGQAPRLLIYDASNRATGIPARFSGSGSGTDFTLTISSLEPEDFAVYYCQQRSNWPPGLTFGGGTKVEIK
B10: antibody 260 (antibody, V domains shown)
VH: EVQLVESGGGLVQPGRSLRLSCAASGFTFDYYAMHWVRQAPGKGLEWVSGISWNSGTIGYADSVKGRFTISRDNAKNSLYLQMNSLRAEDTALYYCAKDSRPSGRYYYGMDVWGQGTTVTVSS
VL: not shown
B11: antibody 266 (antibody, V domains shown)
VH: QVQLVESGGGVVQPGRSLRLSCAASGFNLSNYAMHWVRQPSGKGLEWVSLISYDGSIKYYTDSVKGRFTVSGDNSKNTLFLQMNSLRPDDSALYYCVRGGVSGPNSFDMWGQGTTVTVSS
VL: DVVMTQSPLSLPVTLGQPASISCRSSQSLVYSDGNTYVNWFQQRPGQSPRRLIYQVSIRASGVPDRFSGSGSGTDFALKISRVEAEDVGVYYCMQGTHWPVTFGQGTKVEIK
B12: antibody 264 (antibody, V domains shown)
VH: QVHLVESGGGVVQPGRSLRLSCAASGFTLTSYAMHWVRQAPGKGLEWVALISYDGSVKKYAESVKGRITVSGDNSRNTLHLQINTLRADDTAVYYCVRGGVSGPNSFDLWGQGTMVTVSS
VL: B11 VL with V30E, I58N, A77T, K79Q, V90I
B13: antibody 303 (antibody, V domains shown)
VH: B11 VH with N31S, P40A, T61A, T78M, P88A, S106A, M109I
VL: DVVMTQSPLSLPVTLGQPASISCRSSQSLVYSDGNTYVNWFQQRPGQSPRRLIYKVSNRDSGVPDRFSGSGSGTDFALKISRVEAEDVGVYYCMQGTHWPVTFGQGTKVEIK
B14: anti-SARS-CoV-2 antibody 395 (antibody, V domains shown)
VH: QVQLVQSGSELKKPGASVKLSCQASGYTFSNHAMNWVRQAPGQGLEWMGWINTNTGNPTYAQGFTGRFVFSLDTSVGTAYLHISSLKAEDTAFYYCARASARPGVATNLDFWGQGTLVVVSS
VL: DIQMTQSPSSLSASVGDRVTITCRTSQNIDNYLNWYQQKPGKAPNLLIYAASRLHSGVPSRFSGSGSGTDFTLIISSLQPEDLATYYCQQSYSNPLTFGPGTKVDIR
B15: antibody 301 (antibody, V domains shown)
VH: QVQLVQSGAEVKKPGASVKVSCKVSGYTLTELSMHWVRQAPGKGLEWMGGFDPEDGETIYAQKFQGRVTMTEDTSTDTAYMELSSLRSEDTAVYYCATAFCGGDCYPPDALDIWGQGTMVTVSS
VL: DIQMTQSPSSVSASVGDRVTITCRASQGISSWLAWYQQKPGKAPKLLIYAASSLQSGVPSRFSGSGSGTDFTLTISSLQPEDFATYYCQQANSFPLTFGGGTKVEIK
B16: anti-SARS-CoV-2 antibody 423 (antibody, V domains shown)
VH: EVQLVESGGGLIQPGGSLRISCAASGFTVRNNHMSWVRQAPGKGLEWVSVFYRGGTTYYADSVKGRFTISRDDSKNTVDLQMNSLRGEDTAVYYCARGLSVAASGYFDCWGQGTLVTVSS
VL: B15 VL with R18T, S26N, K39V, K45E, A51T, S53T, L96F, G100P, E105D
B17: anti-SARS-CoV-2 antibody 396 (antibody, V domains shown)
VH: QVQLQQWGAGLLKPSETLSLTCAVYGGSFSGYYWSWIRQPPGKGLEWIGEIIHSGSTNYNPSLKSRVTISVDTSKNQFSLKLSSVTAADTAVYYSARRTGLLWFREGSYYFDYWGQGTLVTVSS
VL: B15 VL with V11L, S30R, S31N, W32D, A34G, L46R, D70E, Q89L, A91H, F94Y
B18: antibody 300 (antibody, V domains shown)
VH: QVQLVESGGGVVQPGRSLTLSCAASGFTFSSYAMHWVRQAPGKGLEWVALISYDGNNKYYADSVKGRFTFSRDNSKNTLYLQMNSLRAEDTAVYYCARTNSGSYRTAFDYWGQGTLVTVSS
VL: DIQMTQSPSTLSASVGDRVTITCRASQSISIWLAWYQQKPGKAPKLLIYKASSLESGVPSRFSGSGSGTEFTLTISSLQPDDFATYYCQQYNSLWTFGQGTKVEIK
B19: anti-SARS-CoV-2 antibody 409 (antibody, V domains shown)
VH: QVTLRESGPALVKPTQTLTLTCTFSGFSLSTSGMCVSWIRQPPGKALEWLALIDWDDDKYYSTSLKTRLTISKDTSKNQVVLTMTNMDPVDTATYYCARTTYYYVSGRRAEFDPWGQGTLVTVSS
VL: NFMLTQPHSVSESPGKTVTISCTGSSGSIASNYVQWYQQRPGSAPTTVIYEDNQRPSGVPDRFSGSIDSSSNSASLTISGLKTEDEADYYCQSYDSSNQGVFGGGTKLTVL
B20: antibody 265 (antibody, V domains shown)
VH: EVQLVQSGAEVKKPGATVKVSCKFSGDTFSHYYIHWVQQAPGKGLEWMGLVDPQDGESEYAQKFQGKVTITADTSIDTSYLEVTSLRFDDTAFYFCATRGMSGAFDRWGQGTLVTVSS
VL: DIVMTQSPDSLAVSLGERATINCKSSQSILSTSNNKNYLAWYQQKPGQPPKLLIYWASTRESGVPDRFSGGGSGTDFTLTISSLQAEDVAVYYCQQYYRTAYTTPIYTFGQGTKLEIK
B21: antibody 276 (antibody, V domains shown)
VH: QVQLQESGPGLVKPSQTLSLTCTVSGDSISSGGYYWSWIRQHPGKGLEWIGYIYYSGSAYYNPSLKSRVTISLDTSKNQFSLKLSSVTAADTAVYYCARDSVAGFSIFDYWGQGTLVTVSS
VL: SSELTQDPAVSVALGQTVRITCQGDSLRSYYASWYQQKPGQAPVRVIYGKNNRPSGIPDRFSGSSSGNTASLTITGAQAEDEADYYCNSWDSSGNHVVFGGGTKLTVL
B22: anti-SARS-CoV-2 antibody 412 (antibody, V domains shown)
VH: QVQLVQSGAEVKKPGASVKVSCKASGYTFTSYGISWVRQAPGQGLEWMGWISAYNGNTNYAQKLQGRVTMTTDTSTSTAYMELRSLRSDDTAVYYCARVTVEAIFGVVILPLKNWFDPWGQGTLVTVSS
VL: QSVLTQPPSVSGAPGQRVTISCTGSSSNIGAGYDVHWYQQLPGTAPKLLIYGNSNRPSGVPDRFSGSKSGTSASLAITGLQAEDEADYYCQSYDSSLTLYVFGTGTKVTVL
B23: antibody 281 (antibody, V domains shown)
VH: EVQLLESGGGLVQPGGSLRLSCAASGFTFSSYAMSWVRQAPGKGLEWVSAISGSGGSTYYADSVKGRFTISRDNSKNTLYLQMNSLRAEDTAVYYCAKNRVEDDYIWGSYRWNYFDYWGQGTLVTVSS
VL: QSALTQPASVSGSPGQSITISCTGTSSDVGSYNLVSWYQQHPGKAPKLMIYEVSKRPSGVSNRFSGSKSGNTASLTISGLQAEDEADYYCCSYAGSSTHVVFGGGTKLTVL
B24: antibody 263 (antibody, V domains shown)
VH: EVQLVQSGAEVKKPGATVKISCKVSGYTFTDYYMHWVQQAPGKGLEWMGLVDPEDGETIYAEKFQGRVTITADTSTDTAYMELSSLRSDDTAVYYCTTDLAFTIFGGRRGFDPWGQGTLVTVSS
VL: DIQLTQSPSFLSASVGDRVTITCRASQGISSYLAWYQQKPGKAPKLLIYAASTLQSGVPSRFSGSGSGTEFTLTISSLQPEDFATYYCQQLNSYDFGQGTRLEIK

Tests used:
[1] = target: SARS-CoV Spike protein (full length Spike, coupled to optically encoded beads) (SARS-CoV, UniProt P59594 14-1190)
[2] = target: SARS-CoV-2 Spike (S) protein, wild type, full length (SARS-CoV-2, UniProt P0DTC2 14-1208)

Row | Binder | median fluorescence, fold over isotype [1] | bead binding signal (fold over isotype) [2]
1 | B1 | 1.07 fold over isotype | 
2 | B2 | 1.08 fold over isotype | 
3 | B3 | 80.9 fold over isotype | 
4 | B4 |  | 924 fold over isotype
5 | B5 | 1.04 fold over isotype | 
6 | B6 | 1.19 fold over isotype | 
7 | B7 | 1.19 fold over isotype | 
8 | B8 | 59.6 fold over isotype | 
9 | B9 |  | 599 fold over isotype
10 | B10 |  | 724 fold over isotype
11 | B11 |  | 473 fold over isotype
12 | B12 |  | 598 fold over isotype
13 | B13 |  | 341 fold over isotype
14 | B14 | 1.16 fold over isotype | 
15 | B15 |  | 865 fold over isotype
16 | B16 | 1.23 fold over isotype | 
17 | B17 | 1.36 fold over isotype | 
18 | B18 |  | 721 fold over isotype
19 | B19 | 1.03 fold over isotype | 
20 | B20 |  | 1280 fold over isotype
21 | B21 |  | 748 fold over isotype
22 | B22 | 1.09 fold over isotype | 
23 | B23 |  | 570 fold over isotype
24 | B24 |  | 722 fold over isotype
